Each block holds one substance with its values, some of them ahead of it.
Legend:
[1] = molecular target: proteasome β2 subunit (trypsin-like site) in human cells and cell extracts (human) (UniProt Q99436); assay: cell-based or functional assay
[2] = molecular target: proteasome β5 subunit (chymotrypsin-like site) in human cells and cell extracts (human) (UniProt P28074); assay: cell-based or functional assay
Chain of proteasome β5 subunit (chymotrypsin-like site) in human cells and cell extracts (human) (P28074 60-263): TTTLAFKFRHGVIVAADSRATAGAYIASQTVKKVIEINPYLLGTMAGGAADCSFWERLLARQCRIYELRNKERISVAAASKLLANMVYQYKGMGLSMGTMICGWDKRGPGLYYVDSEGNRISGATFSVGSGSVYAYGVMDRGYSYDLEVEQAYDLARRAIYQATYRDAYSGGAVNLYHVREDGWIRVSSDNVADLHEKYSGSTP

Chain of proteasome β2 subunit (trypsin-like site) in human cells and cell extracts (human) (Q99436 44-277): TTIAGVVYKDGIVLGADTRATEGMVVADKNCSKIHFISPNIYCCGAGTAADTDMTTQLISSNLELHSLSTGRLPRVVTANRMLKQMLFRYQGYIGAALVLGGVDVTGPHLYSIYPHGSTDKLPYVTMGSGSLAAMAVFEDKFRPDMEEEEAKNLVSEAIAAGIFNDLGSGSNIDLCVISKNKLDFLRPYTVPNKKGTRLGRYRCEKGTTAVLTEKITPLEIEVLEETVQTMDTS

IC50 (µM) for sites: Tr-L; NCI-H929 cells, 6 h, PROTEASOMEGLO [1]: 0.9 µM
IC50 (µM) for sites: Tr-L; RPMI-8226 cells, 6 h, PROTEASOMEGLO [1]: 24 µM
inhibition of the trypsin-like sites at 3 µM NC-022 within 4-6 hours, NCI-H929 cells [1]: 90%
inhibition of trypsin-like activity 5 hours after NC-022 addition, NCI-H929 and KMS-12-BM cells [1]: > 90%
inhibition of trypsin-like activity after a 6-hour incubation, MM cell lines [1]: > 90%
Substance: NC-022 (HMB-Val-Ser-Arg-ek) (peptide)

Inhibition of active sites (% control): Trypsin-like sites, 1 h; KMS-12-BM, 11 nM carfilzomib [1]: -3%
Inhibition of active sites (% control): Trypsin-like sites, 1 h; KMS-12-BM, 33 nM carfilzomib [1]: 0%
Inhibition of active sites (% control): Trypsin-like sites, 1 h; KMS-12-BM, 100 nM carfilzomib [1]: 18%
Inhibition of active sites (% control): Trypsin-like sites, 1 h; KMS-12-BM, 300 nM carfilzomib [1]: 49%
Inhibition of active sites (% control): Trypsin-like sites, 1 h; KMS-12-BM, 900 nM carfilzomib [1]: 75%
Inhibition of active sites (% control): Trypsin-like sites, 1 h; NCI-H929, 3.7 nM carfilzomib [1]: -7%
Inhibition of active sites (% control): Trypsin-like sites, 1 h; NCI-H929, 11 nM carfilzomib [1]: 0%
Inhibition of active sites (% control): Trypsin-like sites, 1 h; NCI-H929, 33 nM carfilzomib [1]: 17%
Inhibition of active sites (% control): Trypsin-like sites, 6 h -NC-022; KMS-12-BM, 11 nM carfilzomib [1]: 5%
Inhibition of active sites (% control): Trypsin-like sites, 6 h -NC-022; KMS-12-BM, 33 nM carfilzomib [1]: 45%
Inhibition of active sites (% control): Trypsin-like sites, 6 h -NC-022; KMS-12-BM, 100 nM carfilzomib [1]: 62%
Inhibition of active sites (% control): Trypsin-like sites, 6 h -NC-022; KMS-12-BM, 300 nM carfilzomib [1]: 69%
Inhibition of active sites (% control): Trypsin-like sites, 6 h -NC-022; KMS-12-BM, 900 nM carfilzomib [1]: 72%
Inhibition of active sites (% control): Trypsin-like sites, 6 h -NC-022; NCI-H929, 3.7 nM carfilzomib [1]: 3%
Inhibition of active sites (% control): Trypsin-like sites, 6 h -NC-022; NCI-H929, 11 nM carfilzomib [1]: 39%
Inhibition of active sites (% control): Trypsin-like sites, 6 h -NC-022; NCI-H929, 33 nM carfilzomib [1]: 46%
Inhibition of active sites (% control): Chymotrypsin-like sites, 1 h; KMS-12-BM, 11 nM carfilzomib [2]: 75%
Inhibition of active sites (% control): Chymotrypsin-like sites, 1 h; KMS-12-BM, 33 nM carfilzomib [2]: 90%
Inhibition of active sites (% control): Chymotrypsin-like sites, 1 h; KMS-12-BM, 100 nM carfilzomib [2]: 95%
Inhibition of active sites (% control): Chymotrypsin-like sites, 1 h; KMS-12-BM, 300 nM carfilzomib [2]: 97%
Inhibition of active sites (% control): Chymotrypsin-like sites, 1 h; KMS-12-BM, 900 nM carfilzomib [2]: 98%
Inhibition of active sites (% control): Chymotrypsin-like sites, 1 h; NCI-H929, 3.7 nM carfilzomib [2]: 14%
Inhibition of active sites (% control): Chymotrypsin-like sites, 1 h; NCI-H929, 11 nM carfilzomib [2]: 39%
Inhibition of active sites (% control): Chymotrypsin-like sites, 1 h; NCI-H929, 33 nM carfilzomib [2]: 75%
Inhibition of active sites (% control): Chymotrypsin-like sites, 6 h -NC-022; KMS-12-BM, 11 nM carfilzomib [2]: 67%
Inhibition of active sites (% control): Chymotrypsin-like sites, 6 h -NC-022; KMS-12-BM, 33 nM carfilzomib [2]: 97%
Inhibition of active sites (% control): Chymotrypsin-like sites, 6 h -NC-022; KMS-12-BM, 100 nM carfilzomib [2]: 97%
Inhibition of active sites (% control): Chymotrypsin-like sites, 6 h -NC-022; KMS-12-BM, 300 nM carfilzomib [2]: 97%
Inhibition of active sites (% control): Chymotrypsin-like sites, 6 h -NC-022; KMS-12-BM, 900 nM carfilzomib [2]: 97%
Inhibition of active sites (% control): Chymotrypsin-like sites, 6 h -NC-022; NCI-H929, 3.7 nM carfilzomib [2]: 65.5%
Inhibition of active sites (% control): Chymotrypsin-like sites, 6 h -NC-022; NCI-H929, 11 nM carfilzomib [2]: 89%
Inhibition of active sites (% control): Chymotrypsin-like sites, 6 h -NC-022; NCI-H929, 33 nM carfilzomib [2]: 95%
Substance: carfilzomib (peptide)

Source: patent US20130102527A1
